In patent publication US5792629A, “Isolated DNA encoding novel protease inhibitory polypeptide” (Mochida Pharmaceutical Co., Ltd., priority 1990, dated 1998):
Entries after “also recorded” stand apart in the source; their conditions may differ.

Tests used:
[1] = target: T1, Human neutrophil elastase (Homo sapiens, UniProt P08246); assay: Human elastase-inhibiting activity, substrate STANA; format: biochemical; conditions: purified sample, various concentrations; remaining activity vs buffer control (FIG. 15A-C)
T1 construct: purchased CALBIOCHEM Type V
T1 sequence (P08246 30-267): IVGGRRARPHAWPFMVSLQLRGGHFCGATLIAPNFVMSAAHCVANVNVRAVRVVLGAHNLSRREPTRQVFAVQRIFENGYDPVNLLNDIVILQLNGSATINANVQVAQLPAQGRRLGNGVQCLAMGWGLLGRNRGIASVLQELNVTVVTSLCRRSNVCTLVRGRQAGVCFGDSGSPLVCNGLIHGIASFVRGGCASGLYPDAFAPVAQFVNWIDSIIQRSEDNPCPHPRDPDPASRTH
Experimental: The purified sample obtained in Example 1-(5) was dissolved in 100 μl of distilled water. Concentration of this solution was determined based on its bovine trypsin-inhibiting activity using the UTI as a standard. The solution was then diluted to various concentration levels with 0.1% BSA/27 mM CaCl2 /133 mM Tris-HCl buffer (pH 7.5) for use in the activity measurement. The aforementioned UTI was also diluted in the same manner. Human elastase-inhibiting activities in the test samples and the positive control were measured in accordance with the method of Ogawa et al. (Ogawa, M. et al., Res. Commun. Chem. Pathol. Pharmacol., vol.55, pp.271-274, 1987) using a synthetic compound STANA (Peptide Institute Inc.) as a substrate.
Human neutrophil elastase (Type V, CALBIOCHEM) was dissolved in 27 mM CaCl2 /[…] Tris-HCl buffer (pH 7.5) to a concentration of 100 μg/ml and the solution was further diluted with 0.1% BSA/27 mM CaCl2 /133 mM Tris-HCl buffer (pH 7.5) to prepare 4 μg/ml of elastase solution. 100 mM solution of STANA was prepared by dissolving it in N-methyl-2-pyrrolidone and the solution was further diluted with 0.1% BSA/27 mM CaCl2 /133 mM Tris-HCl buffer (pH 7.5) to prepare 20 mM of STANA solution.
Next, 50 μl of the test sample or positive control was mixed with 50 μl of the elastase solution and 50 μl of 0.1% BSA/27 mM CaCl2 /133 mM Tris-HCl buffer (pH 7.5). After incubation at 37° C. for 10 minutes, 50 μl of the STANA solution was added to the mixture to start the reaction. The reaction was carried out at 37° C. for 20 minutes and then stopped by adding 50 μl of 50% acetic acid solution to the reaction mixture. Thereafter, absorbance at 405 nm was measured using a spectrophotometer.
In this instance, in order to eliminate absorbance of various solutions in the reaction mixture, a blank solution was prepared by mixing 50 μl of the elastase solution with 50 μl of 50% acetic acid and then with 50 μl of each test sample or the positive control, 50 μl of 0.1% BSA/27 mM CaCl2 /133 mM Tris-HCl buffer (pH 7.5) and with 50 μl of the STANA solution.
In this figure, human elastase remaining activity was expressed by percentage based on the absorbance of a control reaction mixture in which 50 μl of 0.1% BSA/27 mM CaCl2 /133 mM Tris-HCl buffer (pH 7.5) was used instead of the test sample or the positive control.

trypsin = conditions: literature report; cited from earlier work
chymotrypsin = conditions: literature report; cited from earlier work
plasmin = plasmin (Homo sapiens, UniProt P00747); conditions: literature report; cited from earlier work
elastase = conditions: literature report; cited from earlier work
FXa = FXa (Homo sapiens, UniProt P00742); conditions: literature reports, very high concentration; cited from earlier work
FXa, sequence (P00742 235-488 limits assumed): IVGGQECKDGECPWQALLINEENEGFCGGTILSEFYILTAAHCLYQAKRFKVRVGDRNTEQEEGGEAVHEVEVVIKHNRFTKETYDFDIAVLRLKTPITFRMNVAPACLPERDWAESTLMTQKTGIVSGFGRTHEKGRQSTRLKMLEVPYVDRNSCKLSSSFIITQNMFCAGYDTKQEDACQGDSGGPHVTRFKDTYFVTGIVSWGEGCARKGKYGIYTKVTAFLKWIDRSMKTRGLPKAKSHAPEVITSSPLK
FXa, sequence (P00742 41-179 partner limits assumed): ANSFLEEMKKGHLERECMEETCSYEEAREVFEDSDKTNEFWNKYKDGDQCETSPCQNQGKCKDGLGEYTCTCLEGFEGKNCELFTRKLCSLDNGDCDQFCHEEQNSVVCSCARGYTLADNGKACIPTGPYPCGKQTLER

plasmin, sequence (P00747 581-810 limits assumed, species assumed): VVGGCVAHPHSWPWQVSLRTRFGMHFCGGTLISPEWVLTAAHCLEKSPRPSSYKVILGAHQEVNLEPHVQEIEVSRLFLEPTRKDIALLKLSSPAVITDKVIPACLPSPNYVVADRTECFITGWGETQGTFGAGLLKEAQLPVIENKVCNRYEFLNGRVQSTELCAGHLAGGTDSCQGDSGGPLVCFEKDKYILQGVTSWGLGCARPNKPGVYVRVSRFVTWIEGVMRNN
plasmin, sequence (P00747 97-580 partner limits assumed, species assumed): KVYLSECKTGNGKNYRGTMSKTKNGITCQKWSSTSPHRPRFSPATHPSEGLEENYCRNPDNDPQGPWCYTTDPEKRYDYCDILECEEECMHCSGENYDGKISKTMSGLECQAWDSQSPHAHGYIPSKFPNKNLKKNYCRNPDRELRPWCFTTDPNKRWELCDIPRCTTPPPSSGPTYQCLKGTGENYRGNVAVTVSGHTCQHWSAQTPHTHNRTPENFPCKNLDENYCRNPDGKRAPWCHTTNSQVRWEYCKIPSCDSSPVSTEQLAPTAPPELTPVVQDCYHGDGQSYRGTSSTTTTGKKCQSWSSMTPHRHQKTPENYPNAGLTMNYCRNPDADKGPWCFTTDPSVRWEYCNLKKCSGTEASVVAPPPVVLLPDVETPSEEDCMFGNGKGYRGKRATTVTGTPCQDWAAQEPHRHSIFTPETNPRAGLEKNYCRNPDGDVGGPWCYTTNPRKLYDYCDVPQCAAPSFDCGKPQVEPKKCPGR

| Molecule | human elastase-inhibiting activity [1] | inhibition of trypsin (trypsin) | inhibition of chymotrypsin (chymotrypsin) | inhibition of plasmin (plasmin) | inhibition of elastase (elastase) | inhibition of FXa activity (FXa) |
| --- | --- | --- | --- | --- | --- | --- |
| CC51: polypeptide defined by the amino acid sequence of formula 1, purified from culture supernatant of E. coli JE5505 (pM560) (CNLPIVRGPCRAFIQLWAFDAVKGKCVLFPYGGCQGNGNKFYSEKECREYC) | activity was found | – | – | – | – | – |
| TN70: polypeptide defined by the amino acid sequence of formula 3, purified from culture supernatant of E. coli JE5505 (pM552) (protein) TVAACNLPIVRGPCRAFIQLWAFDAVKGKCVLFPYGGCQGNGNKFYSEKECREYCGVPGDGDEELLRFSN | activity was found | – | – | – | – | – |
| TL66: polypeptide defined by formula 8; known enzyme-digested fragment of urinary trypsin inhibitor, made in E. coli JE5505 (pM551) (protein) TVAACNLPIVRGPCRAFIQLWAFDAVKGKCVLFPYGGCQGNGNKFYSEKECREYCGVPGDGDEELL | activity was found | activities to inhibit | activities to inhibit | activities to inhibit | – | – |
| UTI: urinary trypsin inhibitor purified from human urine (Mochida Pharmaceutical), used as positive control (protein, glycoprotein (sugar moieties, as the filing says in general of UTI)) AVLPQEEEGSGGGQLVTEVTKKEDSCQLGYSAGPCMGMTSRYFYNGTSMACETFQYGGCMGNGNNFVTEKECLQTCRTVAACNLPIVRGPCRAFIQLWAFDAVKGKCVLFPYGGCQGNGNKFYSEKECREYCGVPGDGDEELLRFSN | activity was found | shows the inhibition activities | shows the inhibition activities | shows the inhibition activities | shows the inhibition activities | slightly inhibited; also recorded: inhibited the FXa activity |
